Target: T1, OTULIN (OTU deubiquitinase with linear linkage specificity, FAM105B), His-tagged, biotin-labelled (human, UniProt Q96BN8 1-352, biotin (label; sites not stated))
T1 construct: OTULIN (FAM105B), cDNA in pET28a; also called HIS-OTULIN; source: E. coli BL21 (DE3), purified (His-tag Purification Resin), labelled with biotin; not shown: His6, N-terminal, kept
Assay: peptide or protein array; HuProt human proteome microarray; 5 ug/5 ml biotin-labelled LUBAC or OTULIN in solution, 1 h at room temperature; Cy5-streptavidin, scanned at 635 nm; BSA as negative control; hits: Z-score >= 3 and I_(Mean_Ratio) >= 1.4
Conditions: both partners purified

Row | Binder | binding result
1 | XAGE3 (natural protein, human, UniProt Q8WTP9 1-111, looked up, XAGE3; protein on the human proteome microarray; source: spotted on the HuProt human proteome microarray) MIWRGRSTYRPRPRRSVPPPELIGPMLEPGDEEPQQEEPPTESRDPAPGQEREEDQGAAETQVPDLEADLQELSQSKTGGECGNGPDDQGKILPKSEQFKMPEGGDRQPQV | binds
2 | WBP2NL (natural protein, human, UniProt Q6ICG8 1-309, looked up, WBP2NL; protein on the human proteome microarray; source: spotted on the HuProt human proteome microarray) MAVNQSHTENRRGALIPNGESLLKRSPNVELSFPQRSEGSNVFSGRKTGTLFLTSYRVIFITSCSISDPMLSFMMPFDLMTNLTVEQPVFAANFIKGTIQAAPYGGWEGQATFKLVFRNGDAIEFAQLMVKAASAAARGFPLRTLNDWFSSMGIYVITGEGNMCTPQMPCSVIVYGAPPAGYGAPPPGYGAPPAGYGAQPVGNEGPPVGYRASPVRYGAPPLGYGAPPAGYGAPPLGYGAPPLGYGTPPLGYGAPPLGYGAPPAGNEGPPAGYRASPAGSGARPQESTAAQAPENEASLPSASSSQVHS | binds
3 | ALKBH2 (natural protein, human, UniProt Q6NS38 1-261, looked up, ALKBH2; protein on the human proteome microarray; source: spotted on the HuProt human proteome microarray) MDRFLVKGAQGGLLRKQEEQEPTGEEPAVLGGDKESTRKRPRREAPGNGGHSAGPSWRHIRAEGLDCSYTVLFGKAEADEIFQELEKEVEYFTGALARVQVFGKWHSVPRKQATYGDAGLTYTFSGLTLSPKPWIPVLERIRDHVSGVTGQTFNFVLINRYKDGCDHIGEHRDDERELAPGSPIASVSFGACRDFVFRHKDSRGKSPSRRVAVVRLPLAHGSLLMMNHPTNTHWYHSLPVRKKVLAPRVNLTFRKILLTKK | binds
4 | C17orf82 (natural protein, human, UniProt Q86X59 1-251, looked up, C17orf82; protein on the human proteome microarray; source: spotted on the HuProt human proteome microarray) MGRPLEGQPLRALDLYPEPAFLRSGKDPKSSPASSPSFAVLGPEVRSTGGQAGSRRRPSAPCSQDRAAAEGAPALLGGSPSSGSPGHPPGSAFGVEAGCRALNVSEHARGGFALGLPFGLSGGAYLFLLLDGAGDPKPTPEAPISSADGRAWFPSESSWQLPQLPAGSTSGSEPRARPGLGPRQLLTGPRDGAAGQGPGRGLTARLGREREIDCGPRQAGHGGTATDTGRAGSGARHRPPRDRGTPGLRTH | binds
5 | BLVRB (natural protein, human, UniProt P30043 1-206, looked up, BLVRB; protein on the human proteome microarray; source: spotted on the HuProt human proteome microarray) MAVKKIAIFGATGQTGLTTLAQAVQAGYEVTVLVRDSSRLPSEGPRPAHVVVGDVLQAADVDKTVAGQDAVIVLLGTRNDLSPTTVMSEGARNIVAAMKAHGVDKVVACTSAFLLWDPTKVPPRLQAVTDDHIRMHKVLRESGLKYVAVMPPHIGDQPLTGAYTVTLDGRGPSRVISKHDLGHFMLRCLTTDEYDGHSTYPSHQYQ | binds
6 | BPHL (natural protein, human, UniProt Q86WA6 38-291, looked up, BPHL; protein on the human proteome microarray; source: spotted on the HuProt human proteome microarray) SVTSAKVAVNGVQLHYQQTGEGDHAVLLLPGMLGSGETDFGPQLKNLNKKLFTVVAWDPRGYGHSRPPDRDFPADFFERDAKDAVDLMKALKFKKVSLLGWSDGGITALIAAAKYPSYIHKMVIWGANAYVTDEDSMIYEGIRDVSKWSERTRKPLEALYGYDYFARTCEKWVDGIRQFKHLPDGNICRHLLPRVQCPALIVHGEKDPLVPRFHADFIHKHVKGSRLHLMPEGKHNLHLRFADEFNKLAEDFLQ | binds
7 | C1orf74 (natural protein, human, UniProt Q96LT6 1-269, looked up, C1orf74; protein on the human proteome microarray; source: spotted on the HuProt human proteome microarray) MLLLDLMSSPSPQLLVAAAQQTLGMGKRRSPPQAICLHLAGEVLAVARGLKPAVLYDCNCAGASELQSYLEELKGLGFLTFGLHILEIGENSLIVSPEHVCQHLEQVLLGTIAFVDVSSCQRHPSVCSLDQLQDLKALVAEIITHLQGLQRDLSLAVSYSRLHSSDWNLCTVFGILLGYPVPYTFHLNQGDDNCLALTPLRVFTARISWLLGQPPILLYSFSVPESLFPGLRDILNTWEKDLRTRFRTQNDFADLSISSEIVTLPAVAL | binds
8 | ALKBH3 (natural protein, human, UniProt Q96Q83 1-286, looked up, ALKBH3; protein on the human proteome microarray; source: spotted on the HuProt human proteome microarray) MEEKRRRARVQGAWAAPVKSQAIAQPATTAKSHLHQKPGQTWKNKEHHLSDREFVFKEPQQVVRRAPEPRVIDREGVYEISLSPTGVSRVCLYPGFVDVKEADWILEQLCQDVPWKQRTGIREDITYQQPRLTAWYGELPYTYSRITMEPNPHWHPVLRTLKNRIEENTGHTFNSLLCNLYRNEKDSVDWHSDDEPSLGRCPIIASLSFGATRTFEMRKKPPPEENGDYTYVERVKIPLDHGTLLIMEGATQADWQHRVPKEYHSREPRVNLTFRTVYPDPRGAPW | binds
9 | C11orf1 (natural protein, human, UniProt Q9H5F2 1-150, looked up, C11orf1; protein on the human proteome microarray; source: spotted on the HuProt human proteome microarray) MAASQCLCCSKFLFQRQNLACFLTNPHCGSLVNADGHGEVWTDWNNMSKFFQYGWRCTTNENTYSNRTLMGNWNQERYDLRNIVQPKPLPSQFGHYFETTYDTSYNNKMPLSTHRFKREPHWFPGHQPELDPPRYKCTEKSTYMNSYSKP | binds
10 | C21orf59 (natural protein, human, UniProt P57076 1-290, looked up, C21orf59; protein on the human proteome microarray; source: spotted on the HuProt human proteome microarray) MVLLHVKRGDESQFLLQAPGSTELEELTVQVARVYNGRLKVQRLCSEMEELAEHGIFLPPNMQGLTDDQIEELKLKDEWGEKCVPSGGAVFKKDDIGRRNGQAPNEKMKQVLKKTIEEAKAIISKKQVEAGVCVTMEMVKDALDQLRGAVMIVYPMGLPPYDPIRMEFENKEDLSGTQAGLNVIKEAEAQLWWAAKELRRTKKLSDYVGKNEKTKIIAKIQQRGQGAPAREPIISSEEQKQLMLYYHRRQEELKRLEENDDDAYLNSPWADNTALKRHFHGVKDIKWRPR | binds
11 | ANXA3 (natural protein, human, UniProt P12429 1-323, looked up, ANXA3; protein on the human proteome microarray; source: spotted on the HuProt human proteome microarray) MASIWVGHRGTVRDYPDFSPSVDAEAIQKAIRGIGTDEKMLISILTERSNAQRQLIVKEYQAAYGKELKDDLKGDLSGHFEHLMVALVTPPAVFDAKQLKKSMKGAGTNEDALIEILTTRTSRQMKDISQAYYTVYKKSLGDDISSETSGDFRKALLTLADGRRDESLKVDEHLAKQDAQILYKAGENRWGTDEDKFTEILCLRSFPQLKLTFDEYRNISQKDIVDSIKGELSGHFEDLLLAIVNCVRNTPAFLAERLHRALKGIGTDEFTLNRIMVSRSEIDLLDIRTEFKKHYGYSLYSAIKSDTSGDYEITLLKICGGDD | binds
